Patent US20170267756A1

Assays:
[1] = biological target: anti-CD19 CAR (short), IgG4 hinge only, 4-1BB/CD3ζ, no tag; test: flow cytometry of CD19(Short) CAR T cells (no tag, control); gated FSC/SSC, PI-negative, CD4+; StrepTactin-APC lot 5010-1015; gate from 10^3 on the APC-A axis [Continued]
[2] = biological target: anti-CD19 CAR (short), IgG4 hinge only, 4-1BB/CD3ζ, no tag; test: flow cytometry of CD19(Short) CAR T cells (no tag, control); gated FSC/SSC, PI-negative, CD4+; StrepTactin-APC lot 5010-1018; gate from 10^3 on the APC-A axis [Continued]
[3] = biological target: anti-CD19 T-ChARM^3 with 4-1BB/CD3ζ effector domain; test: flow cytometry of CD19-ChARM3 T cells; gated FSC/SSC, PI-negative, CD4+; StrepTactin-APC lot 5010-1018; gate from 10^3 on the APC-A axis [Continued]
[4] = biological target: anti-CD19 T-ChARM^2 with 4-1BB/CD3ζ effector domain; test: flow cytometry of CD19-ChARM2 T cells; gated FSC/SSC, PI-negative, CD4+; StrepTactin-APC lot 5010-1018; gate from 10^3 on the APC-A axis [Continued]
[5] = biological target: anti-CD19 T-ChARM^3 with 4-1BB/CD3ζ effector domain; test: immunomagnetic selection on a MACS column of T-ChARM3 T cells mixed with control T cells with StrepTactin Nanobeads 3#; retained fraction stained with anti-Strep tag-FITC, flow cytometry; 30.2 before enrichment [Continued]
[6] = biological target: anti-CD19 T-ChARM^2 with 4-1BB/CD3ζ effector domain; test: flow cytometry of CD19-ChARM2 T cells; gated FSC/SSC, PI-negative, CD4+; StrepTactin-APC lot 5010-1015; gate from 10^3 on the APC-A axis [Continued]
[7] = biological target: anti-CD19 T-ChARM^3 with 4-1BB/CD3ζ effector domain; test: immunomagnetic selection on a MACS column of T-ChARM3 T cells mixed with control T cells with StrepTactin Microbeads 2#; retained fraction stained with anti-Strep tag-FITC, flow cytometry; 30.2 before enrichment [Continued]
[8] = biological target: anti-CD19 T-ChARM^3 with 4-1BB/CD3ζ effector domain; test: immunomagnetic selection on a MACS column of T-ChARM3 T cells mixed with control T cells with StrepTactin Microbeads 1#; effluent (not retained) stained with anti-Strep tag-FITC, flow cytometry; 30.2 before enrichment [Continued]
[9] = biological target: anti-CD19 T-ChARM^3 with 4-1BB/CD3ζ effector domain; test: flow cytometry of CD19-ChARM3 T cells; gated FSC/SSC, PI-negative, CD4+; StrepTactin-APC lot 5010-1015; gate from 10^3 on the APC-A axis [Continued]
[10] = biological target: anti-CD19 T-ChARM^3 with 4-1BB/CD3ζ effector domain; test: immunomagnetic selection on a MACS column of T-ChARM3 T cells mixed with control T cells with StrepTactin Microbeads 1#; retained fraction stained with anti-Strep tag-FITC, flow cytometry; 30.2 before enrichment [Continued]

percent of cells in the StrepTactin-APC (APC-A) positive gate [1]: 18.1% | percent of cells in the StrepTactin-APC (APC-A) positive gate [2]: 24.9% | percent of cells in the StrepTactin-APC (APC-A) positive gate [3]: 96.5% | percent of cells in the StrepTactin-APC (APC-A) positive gate [4]: 93.5% | percent STII (FITC-A) positive cells in the bead-retained fraction (Enrichment) [5]: 80.5% | percent of cells in the StrepTactin-APC (APC-A) positive gate [6]: 92% | percent STII (FITC-A) positive cells in the bead-retained fraction (Enrichment) [7]: 87% | percent STII (FITC-A) positive cells in the column effluent [8]: 9.91% | percent of cells in the StrepTactin-APC (APC-A) positive gate [9]: 94.7% | percent STII (FITC-A) positive cells in the bead-retained fraction (Enrichment) [10]: 77.7%
Substance: Strep-Tactin
